{"source": "patent US6107104A", "about": "“Modulators of anchoring protein function” (ICOS Corporation, priority 1996, dated 2000)", "molecules": {"B1": {"name": "recombinant fragment to the first 75 amino acids of AKAP 79: recombinant fragment of AKAP 79, amino acids 1-75 (protein, UniProt P24588 1-75, looked up, fragment)", "chain": "METTISEIHVENKDEKRSAEGSPGAERQKEKASMLCFKRRKKAAKALKPKAGSEAADVARKCPQEAGASDQPEPT"}}, "test_system": "PKC", "assay": "PKC activity assay with EGF receptor peptide substrate", "type": "biochemical", "method": "In order to asses the ability of these peptides to modulate PKC activity, the following assay was performed in the presence and absence of AKAP 79 peptide fragments. PKC [50 nM dissolved in 50 mM tris-HCl (pH 7.4), 5 mM MgCl2 1.2 mM CaCl2, 1 mM DTT, 1 mM EGTA and 100 μg/ml PS] was incubated with EGF receptor peptide substrate (5 μM) at 30° C. for five minutes. Phosphorylation reaction was initiated by addition of 100 μM ^32 P-ATP (500 cpm/pmol) and the reaction allowed to proceed for ten minutes at 30° C. Aliquots of reaction mixture were removed and spotted into P81 filter paper and the reaction terminated by washing the filter paper with excess 75 mM phosphoric acid (three washes for three minutes each). After a final wash in ethanol, the p81 filters were dried and radioactivity was measured by liquid scintillation counting.", "data": [{"molecule": "B1", "values": [{"measurement": "effect of incubation with CaM on inhibition of PKC", "setting": "CaM 15 μM, excess Ca2+", "result": "prevented inhibition"}, {"measurement": "IC50", "setting": "read-out: IC50 of inhibition of PKC activity", "result": "25 ± 5", "unit": "nM"}]}]}
